Patent publication US20110076705A1

Target: 2D9-binding PAGs (immuno-affinity purified PAGs used as ELISA standards)
Assay: sandwich ELISA on 2D9-coated plates with immuno-affinity purified PAG standards, log-logit transformation, SoftMax

B1: monoclonal antibody 2D9 (antibody, mouse IgG1, kappa, V domains shown)
VH: QVQLQQSGAELMKPGASVKISCKATGYIFSNYWMEWVKQRPGHGLEWIGEILPGSDITNYNEKFKDKATFTADSSSNTAYMQLSSLTSEDSAVYYCARAGSGYYGVYYYAMDYWGQGTSVTVSS
VL: DVLMTQTPLSLPVSLGDQASISCRSRQSIVHSNGNTYLEWFLQKPGQSPKLLIYKVSNRFSGVPDRFSGSGSGTDFTLKISRVEAEDLGVYYCFQGSHVPLTFGAGTKLELKR
Kd: 0.9 nM
